Experimental findings from the supplement of paper PMC7877785 are described below.

± gives the uncertainty stated by the source.

This data set can be described thus: self-splicing fitness, log relative to wild type (ln ratio); higher = more splicing; Tetrahymena group I intron in knt gene, E. coli kanamycin selection, DiMSum; sequences stand for … in CUCUCU…GGAGGGAAAAGUUAUCAGGCAUGCACCUGGUAGCUAGUCUUUAAACCAAUAGAUUGCAUCGGUUUAAAAGGCAAGACCGUCAAAUUGCGGGAAAGGGGUCAACAGCCGUUCAGUACCAAGUCUCAGGGGAAACUUUGAGAUGGCCUUGCAAAGGGUAUGGUAAUAAGCUGACGGACAUGGUCCUAACCACGCAGCCAAGUCCUAAGUCAACAGAUCUUCUGUUGAUAUGGAUGCAGUUCACAGACUAAAUGUCGGUCGGGGAAGAUGUAUUCUUCUCAUAAGAUAUAGUCGGACCUCUCCUUAAUGGGAGCUAGCGGAUGAAGUGAUGCAACACUGGAGCCGCUGGGAACUAAUUUGUAUGCGAAAGUAUAUUGAUUAGUUUUGGAGUACUCGUGGUCG
The method in brief: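 Library with all eight P1ex-region intron nucleotides randomised, intron inside the knt kanamycin-resistance gene on pET-22b(+), in E. coli BL21(DE3). Cells grew overnight at 37°C or 30°C on LB agar with or without 25 μg/mL kanamycin (plus 100 μg/mL carbenicillin, 50 μM IPTG, 0.2% rhamnose), in six replicate transformations. Pooled colonies were amplicon-sequenced on Illumina HiSeq 2500. DiMSum fitness is the error-weighted combination of wild-type-normalised replicate fold changes, kanamycin versus none.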

As to ACAUAGCAAUAUUACGUCAC, the “self-splicing fitness (ln)” value is -3.32 ± 0.18 (30 °C) and -2.93 ± 0.28 (37 °C). On the same counts, the results for UUUUAGCAAUAUUACGCGUG are -0.683 ± 0.088 and -0.0858 ± 0.096. Taken in the same sequence, the figures for UUACAGCAAUAUUACGCCAU were -2.91 ± 0.25 and -2.48 ± 0.27. In the case of UGUUAGCAAUAUUACGAAUC, where the note is “30 °C”, the “self-splicing fitness (ln)” value is -2.97 ± 0.48. As to UUUUAGCAAUAUUACGUAGU, the “self-splicing fitness (ln)” value (30 °C) was -1.9 ± 0.37.

In the case of GCAAAGCAAUAUUACGUCUC, the “self-splicing fitness (ln)” value is -1.02 ± 0.11 (30 °C) and -0.501 ± 0.12 (37 °C). Taken in the same sequence, the figures for CUUGAGCAAUAUUACGUGGU were -2.61 ± 0.15 and -2.74 ± 0.19. Regarding GACUAGCAAUAUUACGAUGC, the “self-splicing fitness (ln)” value (30 °C) is -0.221 ± 0.062 and the “self-splicing fitness (ln)” value (37 °C) amounted to 0.0502 ± 0.082. On the same counts, the results for UCUUAGCAAUAUUACGCAUG are -1.98 ± 0.18 and -0.995 ± 0.19. Taken in the same sequence, the figures for CGAGAGCAAUAUUACGCGUU were -2.8 ± 0.36 and -2.46 ± 0.49. For ACGAAGCAAUAUUACGGAAU, the “self-splicing fitness (ln)” value (30 °C) is -3.14 ± 0.12 and the “self-splicing fitness (ln)” value (37 °C) was -1.34 ± 0.1. On the same counts, the results for GGAAAGCAAUAUUACGACUG are -1.93 ± 0.15 and -0.134 ± 0.19. Consider CGGAAGCAAUAUUACGCCUU, for which the “self-splicing fitness (ln)” value is, setting by setting: (30 °C) -3.2 ± 0.17; (37 °C) -3.48 ± 0.3. Turning to GUUGAGCAAUAUUACGGAAU, the “self-splicing fitness (ln)” value (30 °C) is -3.08 ± 0.31. Consider CGCAAGCAAUAUUACGUCCG, for which the “self-splicing fitness (ln)” value is -0.62 ± 0.12 (30 °C) and 0.53 ± 0.2 (37 °C). On the same counts, the results for AUUUAGCAAUAUUACGUCUU are -0.374 ± 0.12 and 0.156 ± 0.17.

For the sequence CGAAAGCAAUAUUACGCCGU, the “self-splicing fitness (ln)” value (30 °C) was -2.98 ± 0.16 and the “self-splicing fitness (ln)” value (37 °C) is -0.862 ± 0.12. For AAGUAGCAAUAUUACGGGUU, the “self-splicing fitness (ln)” value runs as follows: (30 °C) -1.46 ± 0.13; (37 °C) -1.55 ± 0.17. Taken in the same sequence, the figures for GCUAAGCAAUAUUACGUGAC were -2.24 ± 0.2 and -0.851 ± 0.21. Taken in the same sequence, the figures for GCGAAGCAAUAUUACGAUCG were -2.49 ± 0.31 and -0.964 ± 0.28. Taken in the same sequence, the figures for CCCAAGCAAUAUUACGUGAA were -3.33 ± 0.14 and -2.13 ± 0.14. For the sequence AUUUAGCAAUAUUACGUGAC, the “self-splicing fitness (ln)” value reads like this: (30 °C) -2.58 ± 0.18; (37 °C) -1.49 ± 0.36. On to GCAAAGCAAUAUUACGGCAA, for which the “self-splicing fitness (ln)” value reads like this: (30 °C) -0.673 ± 0.094; (37 °C) -0.722 ± 0.091. On the same counts, the results for GCGCAGCAAUAUUACGGCGG are -2.48 ± 0.13 and -1.28 ± 0.15. With ACUCAGCAAUAUUACGCAGG, the “self-splicing fitness (ln)” value is -1.99 ± 0.11 (30 °C) and -1.35 ± 0.13 (37 °C). Regarding GGGGAGCAAUAUUACGGGAA, for the setting “37 °C”, the “self-splicing fitness (ln)” value is -1.38 ± 0.49. As for UUCCAGCAAUAUUACGUUGU, the “self-splicing fitness (ln)” value was -2.93 ± 0.21 (30 °C) and -2.74 ± 0.27 (37 °C). Turning to UCGGAGCAAUAUUACGGGAG, the “self-splicing fitness (ln)” value (37 °C) was -2.24 ± 0.44. Regarding CGCGAGCAAUAUUACGUGUG, the “self-splicing fitness (ln)” value was -4.51 ± 0.24 (30 °C) and -2.68 ± 0.13 (37 °C).

In the case of AUCCAGCAAUAUUACGUAUG, the “self-splicing fitness (ln)” value was -3.79 ± 0.2 (30 °C) and -2.05 ± 0.16 (37 °C).

Turning to GAAUAGCAAUAUUACGACGA, the “self-splicing fitness (ln)” value was -0.436 ± 0.36 (30 °C) and 0.000314 ± 0.24 (37 °C). As for GACUAGCAAUAUUACGUCGU, the “self-splicing fitness (ln)” value reads like this: (30 °C) -3.23 ± 0.18; (37 °C) -1.47 ± 0.13. On to ACGAAGCAAUAUUACGACAG, for which the “self-splicing fitness (ln)” value (30 °C) was -1.59 ± 0.11 and the “self-splicing fitness (ln)” value (37 °C) was -0.583 ± 0.13.

As for AUCCAGCAAUAUUACGAGAC, the “self-splicing fitness (ln)” value is, setting by setting: (30 °C) -2.51 ± 0.091; (37 °C) -2.01 ± 0.11. On the same counts, the results for CACGAGCAAUAUUACGCCCG are -1.88 ± 0.29 and -1.9 ± 0.28. UUGCAGCAAUAUUACGAUUC: the “self-splicing fitness (ln)” value (30 °C) was -3.53 ± 0.38 and the “self-splicing fitness (ln)” value (37 °C) was -1.71 ± 0.19. With GAGGAGCAAUAUUACGAGAG, the “self-splicing fitness (ln)” value reads like this: (30 °C) -2.77 ± 0.32; (37 °C) -2.76 ± 0.41. For AUAAAGCAAUAUUACGUUGG, the “self-splicing fitness (ln)” value is -2.08 ± 0.11 (30 °C) and -2.15 ± 0.15 (37 °C). For the sequence CCCAAGCAAUAUUACGGCUG, the “self-splicing fitness (ln)” value is -4.22 ± 0.23 (30 °C) and -2.69 ± 0.16 (37 °C).

Turning to GAUGAGCAAUAUUACGCCCA, the “self-splicing fitness (ln)” value runs as follows: (30 °C) -1.17 ± 0.23; (37 °C) 0.487 ± 0.28. On the same counts, the results for CUCUAGCAAUAUUACGUGUC are -3.45 ± 0.21 and -3.91 ± 0.31.

For GCGCAGCAAUAUUACGUCAU, the “self-splicing fitness (ln)” value was -1.65 ± 0.084 (30 °C) and -0.91 ± 0.086 (37 °C). Turning to AGCAAGCAAUAUUACGCUAG, the “self-splicing fitness (ln)” value reads like this: (30 °C) -4.08 ± 0.25; (37 °C) -2.1 ± 0.22. Taken in the same sequence, the figures for UGUUAGCAAUAUUACGACCU were -0.58 ± 0.16 and 0.317 ± 0.2. GCUUAGCAAUAUUACGAUGG: the “self-splicing fitness (ln)” value (30 °C) was -1.54 ± 0.1 and the “self-splicing fitness (ln)” value (37 °C) is -0.452 ± 0.097.

Take GCUAAGCAAUAUUACGCCGU: the “self-splicing fitness (ln)” value by setting is: (30 °C) -3.45 ± 0.3; (37 °C) -0.927 ± 0.31.

Take GUUAAGCAAUAUUACGGUAA: the “self-splicing fitness (ln)” value (30 °C) was -1.5 ± 0.15 and the “self-splicing fitness (ln)” value (37 °C) is -1.28 ± 0.14. On the same counts, the results for ACCGAGCAAUAUUACGUGCG are -1.64 ± 0.082 and -1.37 ± 0.13.

Regarding CAGCAGCAAUAUUACGAACA, the “self-splicing fitness (ln)” value (30 °C) is -2.72 ± 0.38 and the “self-splicing fitness (ln)” value (37 °C) was -2.17 ± 0.32. Taken in the same sequence, the figures for UCAGAGCAAUAUUACGCACU were -2.95 ± 0.44 and -2.62 ± 0.48.

Take AGGGAGCAAUAUUACGUGAC: the “self-splicing fitness (ln)” value runs as follows: (30 °C) -2.06 ± 0.3; (37 °C) -1.15 ± 0.39.

With GCCGAGCAAUAUUACGUAAU, the “self-splicing fitness (ln)” value is -1.28 ± 0.092 (30 °C) and -0.203 ± 0.099 (37 °C). On the same counts, the results for AUCGAGCAAUAUUACGCGAG are -2.32 ± 0.2 and -1.4 ± 0.14. Taken in the same sequence, the figures for GUAAAGCAAUAUUACGGAUC were -0.198 ± 0.12 and 0.205 ± 0.15. As for CGUAAGCAAUAUUACGCAGC, under “37 °C”, the “self-splicing fitness (ln)” value is -2.3 ± 0.39. In the case of CCCCAGCAAUAUUACGGAUC, the “self-splicing fitness (ln)” value (30 °C) is -2.89 ± 0.12 and the “self-splicing fitness (ln)” value (37 °C) was -2.96 ± 0.21.

As for CGUUAGCAAUAUUACGACAA, the “self-splicing fitness (ln)” value is, setting by setting: (30 °C) -1.99 ± 0.17; (37 °C) -1.15 ± 0.17. Taken in the same sequence, the figures for CCCAAGCAAUAUUACGCGCA were -4.14 ± 0.35 and -2.72 ± 0.21. Taken in the same sequence, the figures for AACCAGCAAUAUUACGAUCA were -0.638 ± 0.1 and -0.0996 ± 0.11.

As for GAAUAGCAAUAUUACGGAUU, the “self-splicing fitness (ln)” value (30 °C) was -0.925 ± 0.053 and the “self-splicing fitness (ln)” value (37 °C) is -0.4 ± 0.07. In the case of AAUCAGCAAUAUUACGGACA, the “self-splicing fitness (ln)” value runs as follows: (30 °C) -0.225 ± 0.077; (37 °C) -0.145 ± 0.091.

AGCGAGCAAUAUUACGUGCC: the “self-splicing fitness (ln)” value reads like this: (30 °C) -3.37 ± 0.41; (37 °C) -0.439 ± 0.22.
